Experimental data from the supplement of paper PMC9170038.

Tested on: MS2 coat protein
Assay: apparent KD of MS2 coat protein; higher = weaker reporter binding
Settings: Eterna round: R107
How it was run: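 Designed RNA switches were transcribed on-chip from Illumina sequencing clusters and titrated with SNAP-549-labelled MS2 coat protein in twofold steps from 0.7 or 1.5 nM up to 3 µM. Each step lasted 0.8–1.5 h at first and 10–20 min by the end, in 100 mM Tris-HCl pH 7.5, 80 mM KCl and 4 mM MgCl2, without or with constant ligand. Apparent KD is the median, for each design, of fits to normalised cluster binding curves.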

[1] = input ligand: theophylline 20 uM
[2] = input ligand: theophylline 2 mM
[3] = input ligand: tryptophan 2.4 mM

| Sequence | apparent KD of MS2 coat protein (input ligand: arginine 13.2 mM) [nM] | apparent KD of MS2 coat protein (input ligand: none) [nM] | apparent KD of MS2 coat protein [1] [nM] | apparent KD of MS2 coat protein [2] [nM] | apparent KD of MS2 coat protein [3] [nM] |
| --- | --- | --- | --- | --- | --- |
| GGGACAUGAGGAUCACCCAUGUACCGGUCCCGAGGACCGGUACGGCCGCCACUCGAUGACCUCAUAGUCUACUUGAGCAGUAGAC [Geeson] | 37.7 | 22.1 | 143 | 38.6 | 100 |
| GGGAGAUAGGCGGCCGCCACUGAUUUUCAUAUAUAUAUAACAUGAGGAUCACCCAUGUAGAUAUACAGGACCGGGCCUAUUUUUU [aaaE] | 19.1 |  | 22.5 | 19.7 |  |
| GGGCAAGAGGGAAGGAGCGUCAGCUGAGUAACAUGAGGAUCACCCAUGUAGCACAUAGUGUGACAGGUAGGUCGCCCUCUGCCCU [SS-ArgB6] | 12.6 | 8.97 | 10.4 | 8.42 | 12.5 |
| GGGCAAGAGGGAAGGAGCGUCAGCUGAGUCACAUGAGGAUCACCCAUGUCGCACAUAGUGUGACAGGUAGGUCGCCCUCUGCCCU [Zaistiqu] | 74.3 | 131 | 158 | 201 | 133 |
| GGGCACAUGAGGAUCACCCAUGUCCAACGGCGAGGACCGGUACGGCCGCCACUCGGUAUAAGCUUCGAAAAGGAGGAUCCUGCAG [theeternabot_sameState_MS2_Trp_A_35] | 20.4 |  | 56.3 | 47.7 |  |
| GGGCCCGGGCGCGAGCCCGGGCCCAUUGAUACCAGUGAAUGUGUGCGCCCUUGGCAGCGAAUCCUAACAUGAGGAUCACCCAUGU [5.E] | 16.2 | 28.6 | 117 | 50.4 | 48.3 |
| GGGCGCGAGACGGCCGCCACUACACAUGAGGAUCACCCAUGUAUGGCAACAUGAGGAUCUGCCAUUAGGACCGGGUCAGGGCCCA | 29.3 | 31.2 | 53.4 | 41.8 | 38.5 |
| GGGCGCGUGGACUGGCGUGCUCCGCUCCGUCGAGGACCGGUACGGCCGCCACUCGACAUGAGGAUCACCCAUGUGUGCGCUCGCG [#1 Exclusion - Tryptophan A Attempt #18 (HarryS)] | 14.5 | 21 | 194 | 40.4 | 7.36 |
| GGGUACAUCGCGGCCGCCACUCAUGUAAAUGCAUGAGGAACACCCAUGCCGAUGGAGACAUCGGAGAGGACCGGGUGAUGUACCG | 66 | 110 | 157 | 148 | 93.7 |
| GGGUACAUCGCGGCCGCCACUGGUGUAAAUACAUGAGGAUCACCCAUGUCGAUGGAGACAUCGGGUAGGACCGGGUGAUGUACCG | 19.8 | 21.9 | 37.3 | 30.2 | 24.3 |
| GGGUACAUCGCGGCCGCCACUUGUGUAAAUACAUGAGGAUCACCCAUGUCGAUGGAGACAUCGGCAAGGACCGGGUGAUGUACCG | 107 | 130 | 172 | 146 | 15.2 |
| GGGUACAUCGCGGCCGCCACUUUUGUAAAUACAUGAGGAUCACCCAUGUCGAUGGAGACAUCGGUGAGGACCGGGUGAUGUACCG | 196 | 624 | 523 | 721 | 295 |
| GGGUCCGUCGGAAGGAGCGACAUGAGGAUCACCCAUGUCUCCCGUUAUGGGAGUUCUUUAGGUCAGGUAGGUCGCCGGCGGGUCC [#1 Exclusion - Arginine B Attempt #13 (Inspired by Omei)] | 65 | 141 | 196 | 164 | 119 |
| GGUAUUGGAACAGAUACCAGUAUCUGUUGAUCCUACAUGAGGAUCACCCAUGUUAGAAAGUACCCUUGGCAGCUGUAAUAAUGCC [Theo B Ex t1] | 52.7 |  | 76.6 |  | 49.4 |
| GGUCAGCAGUCGGCCGCCACUAGUAUACAUGAGGAUCACCCAUGUCCCUUGCGCCUCACCGAUUUUAGGACCGGGACACUGCCUG [theeternabot_exclusion_MS2_Trp_B_9] | 25.1 |  | 42 | 40.2 |  |
| GGUCUCUGGAGCGAUACCAGCUUAAUCGUACUGGCCAGGUACAUGAGGAUCACCCAUGUAAGCCCUUGGCAGCGCUCCAGAGACC [#1 Exclusion - Theophylline B Attempt #11 (HarryS)] | 6.02 | 12.9 | 16.4 | 14.4 | 10.5 |
| GGUCUCUGGAGCGAUACCAGCUUGAGUGUACUGGCCAGGUACAUGAGGAUCACCCAUGUAAGCCCUUGGCAGCGCUGCAGAGACC [#1 Exclusion - Theophylline B Attempt #16 (HarryS)] | 9.75 |  | 15 |  | 11.2 |
| GGUGGCUGGACUGAUACCAGCCACCACCGAUAGACCACAUGAGGAUCACCCAUGUUGGGUGGCCCUUGGCAGCAGUCUAGCUGCC [#1 Same State - Theophylline B Attempt #11 (HarryS)] | 231 |  | 727 |  | 441 |
| GGUUACUCUACGGCCGCCACUGAUUAUUUAUAAUCCUGUACAUAAACAUGAGGAUCACCCAUGUACAGGACCGGGUAGUGUAACC [Tryptophan B 11] | 29.9 |  | 37.7 | 33.5 |  |
| GGUUGAAACUGAAGGAGCGAGAUGACAACAUUGGGUCUAACAUGAGGAUCACCCAUGUAAUCUCAGGUAGGUCGCAGUGACCAAA [Exclusion Arginine B GF 14] | 38.1 | 50.2 | 41.5 | 46.7 | 43.1 |

| Sequence | apparent KD of MS2 coat protein (input ligand: arginine 13.2 mM) [nM] | apparent KD of MS2 coat protein (input ligand: none) [nM] | apparent KD of MS2 coat protein [1] [nM] | apparent KD of MS2 coat protein [2] [nM] | apparent KD of MS2 coat protein [3] [nM] |
| --- | --- | --- | --- | --- | --- |
| GGUUUAUAUAUAUAUAUAUAGAUUACUGAAGGAGCGGGAAAUAACCCAGGUAGGUCGCAGAGAUCCACAUGAGGAUCACCCAUGU [!0.E] | 37.1 | 40.2 | 55.3 | 54.3 | 36.8 |
| GUAAAUGUGACGGAUACCAGCGUGUUGUAGAACAUGAGGAUCACCCAUGUAGUGAUCAUGCGCCCUUGGCAGCUGGUAUGUUUGU [7.aB] | 90.7 |  | 504 |  | 684 |
| GUAAUGAUAAGAAGGAGCGUCGAAAAUGGGUAAACAUGAGGAUCACCCAUGUAAAGGGAACGACAGGUAGGUCGCUUAUUAUUAC [AstromonsSSArgB#21] | 126 | 207 | 356 | 203 | 210 |
| GUACAUGAGGAUCACCCAUGUAUAGUUGAAGGAGCGACCAGAGGGUCAGGUAGGUCGCAGCACAUGAGGUAAGCCCGUGUAUGCU [#1 Exclusion - Arginine A Attempt #19 (Inspired by Pi)] | 30.7 | 50.6 | 59.1 | 35.1 | 32 |
| GUACGAGUUGAAUGUGAGACUGGCGUGGAAGGAGCGCACGGAGGUGCAGGUAGGUCGCCACAUGAGGAUCACCCAUGUCGGCUAG [XARG-A 23] | 22.1 | 23.2 | 27.3 | 29 | 25.9 |
| GUAGCGACGGCGGCCGCCACUCGCACGUGAGGGUAGACCAACCUUCACAUGAGGAUCACCCAUGUGAGGACCGGGCUGUCGCUAC [#15 Exclusion Tryptophan B] | 17 | 23.8 | 30.4 | 25.4 | 46.4 |
| GUAUACAUGAGGAUCACCCAUGUACCAGAAGGAGCGCUGGAAACAGCAGGUAGGUCGCUGGUAGGUCCUCUAUCUAGACGUUCGG [EAA NP+V+V2 #4] | 49.9 | 168 | 191 | 201 | 139 |
| GUAUACAUGAGGAUCACCCAUGUACCAGAAGGAGCGCUGGAAACAGCAGGUAGGUCGCUGGUAGGUCCUCUAUCUAGACGUUCUA [EAA NP+V+V2 #5] | 28.1 | 176 | 214 | 195 | 79 |
| GUAUCUAUGUGAAAUAGAUAUAUAACUGAAGGAGCGUCAUUAAGGACAGGUAGGUCGCAGAGCACCUGAGGAUCACCCAGGUAGG [Arg A SS s1] | 27 | 25.7 | 27 | 31.6 | 27.2 |
| GUAUGAGUUGACUGUGAGACUGGCGUGGAAGGAGCGCACGGAGGUGCAGGUAGGUCGCCACAUGAGGAUCACCCAUGUCAGGCCG [Ceedtila] | 32.4 | 38 | 56.4 | 111 | 53 |
| GUAUGGAAACAUACUAUGGUAUCGUGAGAUACCAGUACAGAAAUGUACCCUUGGCAGCUCGCGCAUACAUGAGGAUCACCCAUGU [Ex Theophylline A 10] | 16.4 |  | 25 |  | 19.5 |
| GUAUUAAGAAAACUUGAUACAGUGGGUGAACGAGGACCGGUACGGCCGCCACUCGGACAUGAGGAUCACCCAUGUCCAUGUGAAA [AstrosExyTryA#11] | 17.4 | 19.1 | 18.6 | 17.2 | 37.7 |
| GUCACACAGUAGGAUACCAGCGUGGCUUAUCCCUGAUCGUACAUGAGGAUCACCCAUGUCCGCCCUUGGCAGCCUCCUGCUCGGA [theeternabot_exclusion_MS2_Theo_B_33] | 12.4 |  | 17.7 |  | 11.9 |
| GUCGCUGAGGGAAGGAGCGUGAAGACAUGAGGAUCACCCAUGUAGAGGCGCCGAAGGCGUUCGCAGGUAGGUCGCCCUCAGUGAA [#1 Same State - Arginine B Attempt #25 (HarryS)] | 12.4 | 14.1 | 22.1 | 16.1 | 15.1 |
| GUCUCUGGGAGAAGGAGCGUGAAGACAUGAGGAUCACCCAUGUAGAGGCGCCGACGGCGUUCGCAGGUAGGUCGCUCCCAGAGAC [#1 Same State - Arginine B Attempt #18 (HarryS)] | 18.9 | 23.9 | 44.5 | 110 | 14 |
| GUGAGGUUUGAUGAUACCAGAUGUGGUGGGAACAUGAGGAUCACCCAUGUUGUGAAACAGGUCCCUUGGCAGCAUGAGAGAGCUU [TheoB-ms2@32] | 30.5 |  | 89.3 |  | 52.7 |
| GUGGGACAUGAGGAUCACCCAUGUGACGAUACCAGUCAAUUGAUGGACCCUUGGCAGCGUUGGUAUUGCGGGUAGGCGAGAUAAG [theeternabot_sameState_MS2_Theo_A_3] | 21.4 |  | 60.2 |  | 40.4 |
| GUUUUCAAGUCGGCCGCCACUGAUACAAUCCUCACCGGUUCACAUGAGGAUCACCCAUGUUCGCUCAGGACCGGGACCUUCUGUG [theeternabot_exclusion_MS2_Trp_B_3] | 77.4 |  | 141 | 142 |  |
| UAAAACAUGAGGAUCACCCAUGUAAUUGAUACCAGAGUGAUGAUCCUCCCUUGGCAGCAAAACGCUGAUUGGAAACAAUCAGCGA [Mat - Same State Theophlline A - Mod of Eli - D25] | 50.1 |  | 102 |  | 46.8 |
